Biological target: T1, RepA hexameric replicative helicase (plasmid RSF1010, UniProt P20356 1-279)
T1 sequence: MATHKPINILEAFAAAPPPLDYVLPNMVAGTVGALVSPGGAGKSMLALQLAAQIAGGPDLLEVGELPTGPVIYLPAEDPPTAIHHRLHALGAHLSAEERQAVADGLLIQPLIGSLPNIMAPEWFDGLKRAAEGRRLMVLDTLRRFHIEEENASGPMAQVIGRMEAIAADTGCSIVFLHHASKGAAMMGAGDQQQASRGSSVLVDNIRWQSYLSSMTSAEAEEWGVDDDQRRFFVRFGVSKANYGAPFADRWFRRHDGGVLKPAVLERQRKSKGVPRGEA
Assay: stopped-flow fluorescence anisotropy

## TTTTTTTTTTTTTTTTTTTT (ssDNA, 3' amino six-carbon linker residue) [dT(pT)19-Fl-3' (21-mer)]
  binding result: binds
